Legend:
Test in all cases: holdup assay
Parameters in all cases: key: below the threshold = too weak to quantify, mostly under pKd 3.1 to 4
DFNB31_1, Q9P202 = molecular target: T1, DFNB31_1, Q9P202
T1 sequence (Q9P202 135-233, limits assumed, looked up): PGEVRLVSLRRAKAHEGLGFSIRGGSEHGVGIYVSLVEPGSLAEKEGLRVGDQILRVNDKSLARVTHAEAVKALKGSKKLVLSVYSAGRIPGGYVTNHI

NHERF2_2, Q15599 = molecular target: NHERF2_2, Q15599
GRASP, Q7Z6J2 = molecular target: GRASP, Q7Z6J2
FRMPD3, Q5JV73 = molecular target: FRMPD3, Q5JV73
DLG2_2, Q15700 = molecular target: DLG2_2, Q15700
PDZRN4_1, Q6ZMN7 = molecular target: PDZRN4_1, Q6ZMN7
DLG4_2, P78352 = molecular target: DLG4_2, P78352
SCRIB_2, Q14160 = molecular target: SCRIB_2, Q14160
LRRC7, Q96NW7 = molecular target: T2, LRRC7, Q96NW7
T2 sequence (Q96NW7 1440-1537, limits assumed, looked up): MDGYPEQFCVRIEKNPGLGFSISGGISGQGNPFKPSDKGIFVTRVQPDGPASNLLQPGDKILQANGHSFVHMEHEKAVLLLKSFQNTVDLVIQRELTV

SCRIB_1, Q14160 = molecular target: SCRIB_1, Q14160
SYNJ2BP, P57105 = molecular target: T3, SYNJ2BP, P57105
T3 sequence (P57105 8-110, limits assumed, looked up): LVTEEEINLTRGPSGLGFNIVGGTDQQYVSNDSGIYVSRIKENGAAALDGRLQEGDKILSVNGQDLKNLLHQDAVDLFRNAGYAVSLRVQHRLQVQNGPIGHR

AHNAK1, Q09666 = molecular target: AHNAK1, Q09666
PTPN3, P26045 = molecular target: PTPN3, P26045
SIPA1L2, Q9P2F8 = molecular target: T4, SIPA1L2, Q9P2F8
T4 sequence (Q9P2F8 945-1036, limits assumed, looked up): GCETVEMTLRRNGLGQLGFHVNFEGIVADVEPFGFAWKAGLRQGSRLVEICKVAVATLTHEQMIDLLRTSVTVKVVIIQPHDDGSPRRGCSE

SCRIB_3, Q14160 = molecular target: SCRIB_3, Q14160
MPP2, Q14168 = molecular target: T5, MPP2, Q14168
T5 sequence (Q14168 180-250, limits assumed, looked up): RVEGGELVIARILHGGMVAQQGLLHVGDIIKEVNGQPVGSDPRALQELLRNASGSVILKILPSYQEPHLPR

DLG3_3, Q92796 = molecular target: T6, DLG3_3, Q92796
T6 sequence (Q92796 374-475, limits assumed, looked up): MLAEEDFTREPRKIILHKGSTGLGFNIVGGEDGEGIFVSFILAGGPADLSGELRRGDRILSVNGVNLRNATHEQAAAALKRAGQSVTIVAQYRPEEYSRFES

PTPN13_1, Q12923 = molecular target: T7, PTPN13_1, Q12923
T7 sequence (Q12923 1088-1188, limits assumed, looked up): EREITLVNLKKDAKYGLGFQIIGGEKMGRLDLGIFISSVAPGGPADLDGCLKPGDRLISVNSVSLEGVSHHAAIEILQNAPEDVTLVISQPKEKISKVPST

SNTG2, Q9NY99 = molecular target: T8, SNTG2, Q9NY99
T8 sequence (Q9NY99 68-166, limits assumed, looked up): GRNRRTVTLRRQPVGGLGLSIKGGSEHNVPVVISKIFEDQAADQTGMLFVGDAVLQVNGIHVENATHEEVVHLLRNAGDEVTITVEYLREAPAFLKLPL

Inadl_6, Q8NI35 = molecular target: Inadl_6, Q8NI35
NHERF4_2, Q86UT5 = molecular target: NHERF4_2, Q86UT5
LNX1_2, Q8TBB1 = molecular target: LNX1_2, Q8TBB1
DLG3_2, Q92796 = molecular target: T9, DLG3_2, Q92796
T9 sequence (Q92796 221-321, limits assumed, looked up): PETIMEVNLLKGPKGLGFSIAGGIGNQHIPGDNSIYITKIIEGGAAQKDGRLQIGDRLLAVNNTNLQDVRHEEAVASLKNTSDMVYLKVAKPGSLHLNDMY

SHANK1, Q9Y566 = molecular target: T10, SHANK1, Q9Y566
T10 sequence (Q9Y566 658-767, limits assumed, looked up): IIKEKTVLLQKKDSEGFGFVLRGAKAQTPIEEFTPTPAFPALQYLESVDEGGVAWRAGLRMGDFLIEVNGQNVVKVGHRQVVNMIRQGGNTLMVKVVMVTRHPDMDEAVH

TJP3_3, O95049 = molecular target: T11, TJP3_3, O95049
T11 sequence (O95049 375-456, limits assumed, looked up): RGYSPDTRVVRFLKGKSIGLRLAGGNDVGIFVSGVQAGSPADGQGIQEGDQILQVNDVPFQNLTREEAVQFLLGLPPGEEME

ARHGAP21, Q5T5U3 = molecular target: T12, ARHGAP21, Q5T5U3
T12 sequence (Q5T5U3 45-169, limits assumed, looked up): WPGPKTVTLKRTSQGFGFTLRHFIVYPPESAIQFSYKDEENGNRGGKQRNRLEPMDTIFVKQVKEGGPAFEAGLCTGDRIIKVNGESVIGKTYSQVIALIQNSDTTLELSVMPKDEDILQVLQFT

[1] = plain residues with an end cap or a label only (N-terminal biotin on a linker: ado-ado)
[2] = plain residues with an end cap or a label only (N-terminal biotin on a linker: ttds)

Chain of NHERF2_2, Q15599 (Q15599 142-238): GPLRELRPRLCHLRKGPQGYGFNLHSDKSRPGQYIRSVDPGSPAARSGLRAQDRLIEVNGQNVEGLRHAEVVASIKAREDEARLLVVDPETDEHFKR
Chain of PTPN3, P26045 (P26045 505-587): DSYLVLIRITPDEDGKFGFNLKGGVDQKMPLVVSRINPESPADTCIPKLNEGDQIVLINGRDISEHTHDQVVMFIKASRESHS
Chain of PDZRN4_1, Q6ZMN7 (Q6ZMN7 213-318): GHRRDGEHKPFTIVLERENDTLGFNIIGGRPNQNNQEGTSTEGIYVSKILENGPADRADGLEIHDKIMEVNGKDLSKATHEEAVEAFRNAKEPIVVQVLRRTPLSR
Chain of SCRIB_3, Q14160 (Q14160 999-1103): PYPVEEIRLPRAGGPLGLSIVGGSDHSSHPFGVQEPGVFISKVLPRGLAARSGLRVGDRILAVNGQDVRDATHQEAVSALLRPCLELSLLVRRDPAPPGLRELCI
Chain of LNX1_2, Q8TBB1 (Q8TBB1 371-470): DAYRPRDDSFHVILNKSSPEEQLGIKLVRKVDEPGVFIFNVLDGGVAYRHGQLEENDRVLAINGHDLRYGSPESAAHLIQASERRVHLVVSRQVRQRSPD
Chain of SCRIB_1, Q14160 (Q14160 718-814): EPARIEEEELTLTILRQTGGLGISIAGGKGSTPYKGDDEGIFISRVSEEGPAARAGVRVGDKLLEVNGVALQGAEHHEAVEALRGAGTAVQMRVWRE
Chain of SCRIB_2, Q14160 (Q14160 857-960): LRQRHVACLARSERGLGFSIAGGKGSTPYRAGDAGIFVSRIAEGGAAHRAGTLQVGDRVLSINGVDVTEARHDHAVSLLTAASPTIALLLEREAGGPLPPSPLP
Chain of NHERF4_2, Q86UT5 (Q86UT5 220-308): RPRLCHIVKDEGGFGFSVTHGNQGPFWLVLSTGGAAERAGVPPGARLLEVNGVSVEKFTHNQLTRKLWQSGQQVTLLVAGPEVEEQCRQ
Chain of DLG2_2, Q15700 (Q15700 189-283): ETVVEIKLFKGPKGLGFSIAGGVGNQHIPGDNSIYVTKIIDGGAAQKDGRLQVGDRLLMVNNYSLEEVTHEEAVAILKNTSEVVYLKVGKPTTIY
Chain of FRMPD3, Q5JV73 (Q5JV73 12-100): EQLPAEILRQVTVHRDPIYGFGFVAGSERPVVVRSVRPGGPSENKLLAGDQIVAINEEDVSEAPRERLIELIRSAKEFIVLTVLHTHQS
Chain of GRASP, Q7Z6J2 (Q7Z6J2 96-193): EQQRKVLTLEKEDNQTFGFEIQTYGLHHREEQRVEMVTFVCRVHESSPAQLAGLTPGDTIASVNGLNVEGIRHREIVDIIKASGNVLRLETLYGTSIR
Chain of DLG4_2, P78352 (P78352 155-259): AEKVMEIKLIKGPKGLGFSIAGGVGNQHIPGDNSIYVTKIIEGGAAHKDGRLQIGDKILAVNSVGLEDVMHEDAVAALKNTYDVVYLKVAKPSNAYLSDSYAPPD
Chain of AHNAK1, Q09666 (Q09666 4-100): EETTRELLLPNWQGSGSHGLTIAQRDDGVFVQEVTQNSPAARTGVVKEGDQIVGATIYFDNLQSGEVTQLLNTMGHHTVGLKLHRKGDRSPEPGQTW
Chain of Inadl_6, Q8NI35 (Q8NI35 1058-1167): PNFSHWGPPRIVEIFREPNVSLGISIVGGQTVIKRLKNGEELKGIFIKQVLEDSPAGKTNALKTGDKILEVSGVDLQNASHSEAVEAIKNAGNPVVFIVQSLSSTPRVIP

In the case of TETASVCTKV [SLC23A1, Q9UHI7], the pKd (DFNB31_1, Q9P202; [1]) is reported as 4.18, the pKd (NHERF2_2, Q15599; [1]) is reported as 4.16 and the pKd (GRASP, Q7Z6J2; [1]) is reported as 4.43. For the same binder, the pKd (FRMPD3, Q5JV73; [1]) was “below the threshold”, the pKd (DLG2_2, Q15700; [1]) was 3.99 and the pKd (PDZRN4_1, Q6ZMN7; [1]) was “below the threshold”. For the same binder, the pKd (DLG4_2, P78352; [1]) was 4.15, the pKd (SCRIB_2, Q14160; [1]) was 3.77 and the pKd (LRRC7, Q96NW7; [1]) was “below the threshold”. The pKd (SCRIB_1, Q14160; [1]) was 3.99, the pKd (SYNJ2BP, P57105; [1]) was “below the threshold” and the pKd (AHNAK1, Q09666; [1]) was “below the threshold”. For the same binder, the pKd (PTPN3, P26045; [1]) was 3.97, the pKd (SIPA1L2, Q9P2F8; [1]) was “below the threshold” and the pKd (SCRIB_3, Q14160; [1]) was 3.59. For the same binder, the pKd (MPP2, Q14168; [1]) was “below the threshold”, the pKd (DLG3_3, Q92796; [1]) was “below the threshold” and the pKd (PTPN13_1, Q12923; [1]) was “below the threshold”. The pKd (SNTG2, Q9NY99; [1]) was 3.82, the pKd (Inadl_6, Q8NI35; [1]) was “below the threshold” and the pKd (NHERF4_2, Q86UT5; [1]) was “below the threshold”. For the same binder, the pKd (LNX1_2, Q8TBB1; [1]) was “below the threshold”, the pKd (DLG3_2, Q92796; [1]) was 4.02 and the pKd (SHANK1, Q9Y566; [1]) was 4.42. For the same binder, the pKd (TJP3_3, O95049; [1]) was “below the threshold” and the pKd (ARHGAP21, Q5T5U3; [1]) was 3.94.

With LCALPKVTTV [AGMAT, Q9BSE5] the pKd (DFNB31_1, Q9P202; [2]) was “below the threshold”, the pKd (NHERF2_2, Q15599; [2]) was “below the threshold” and the pKd (GRASP, Q7Z6J2; [2]) was 4.47. For the same binder, the pKd (FRMPD3, Q5JV73; [2]) was “below the threshold”, the pKd (DLG2_2, Q15700; [2]) was 5.35 and the pKd (PDZRN4_1, Q6ZMN7; [2]) was 3.75. The pKd (DLG4_2, P78352; [2]) was 5.29, the pKd (SCRIB_2, Q14160; [2]) was “below the threshold” and the pKd (LRRC7, Q96NW7; [2]) was 3.63. For the same binder, the pKd (SCRIB_1, Q14160; [2]) was 4.39, the pKd (SYNJ2BP, P57105; [2]) was 4.35 and the pKd (AHNAK1, Q09666; [2]) was “below the threshold”. For the same binder, the pKd (PTPN3, P26045; [2]) was 4.4, the pKd (SIPA1L2, Q9P2F8; [2]) was “below the threshold” and the pKd (SCRIB_3, Q14160; [2]) was 4.24. For the same binder, the pKd (MPP2, Q14168; [2]) was “below the threshold”, the pKd (DLG3_3, Q92796; [2]) was 4.47 and the pKd (PTPN13_1, Q12923; [2]) was “below the threshold”. For the same binder, the pKd (SNTG2, Q9NY99; [2]) was 4.24, the pKd (Inadl_6, Q8NI35; [2]) was 3.88 and the pKd (NHERF4_2, Q86UT5; [2]) was “below the threshold”. The pKd (LNX1_2, Q8TBB1; [2]) was 4.42, the pKd (DLG3_2, Q92796; [2]) was 5.31 and the pKd (SHANK1, Q9Y566; [2]) was “below the threshold”. The pKd (TJP3_3, O95049; [2]) was “below the threshold” and the pKd (ARHGAP21, Q5T5U3; [2]) was “below the threshold”.

With FVHPILQSAV [PRKCA, P17252] the pKd (DFNB31_1, Q9P202; [1]) was 4.29, the pKd (NHERF2_2, Q15599; [1]) was “below the threshold” and the pKd (GRASP, Q7Z6J2; [1]) was 5.13. For the same binder, the pKd (FRMPD3, Q5JV73; [1]) was “below the threshold”, the pKd (DLG2_2, Q15700; [1]) was 4.04 and the pKd (PDZRN4_1, Q6ZMN7; [1]) was 3.92. It also gave a pKd (DLG4_2, P78352; [1]) of 4.53, a pKd (SCRIB_2, Q14160; [1]) of 4.29 and a pKd (LRRC7, Q96NW7; [1]) of 3.58. For the same binder, the pKd (SCRIB_1, Q14160; [1]) was 4.57, the pKd (SYNJ2BP, P57105; [1]) was 5.31 and the pKd (AHNAK1, Q09666; [1]) was “below the threshold”. For the same binder, the pKd (PTPN3, P26045; [1]) was 4.59, the pKd (SIPA1L2, Q9P2F8; [1]) was “below the threshold” and the pKd (SCRIB_3, Q14160; [1]) was 4.3. The pKd (MPP2, Q14168; [1]) was “below the threshold”, the pKd (DLG3_3, Q92796; [1]) was 3.57 and the pKd (PTPN13_1, Q12923; [1]) was “below the threshold”. The pKd (SNTG2, Q9NY99; [1]) was 3.64, the pKd (Inadl_6, Q8NI35; [1]) was “below the threshold” and the pKd (NHERF4_2, Q86UT5; [1]) was “below the threshold”. For the same binder, the pKd (LNX1_2, Q8TBB1; [1]) was “below the threshold”, the pKd (DLG3_2, Q92796; [1]) was 4.26 and the pKd (SHANK1, Q9Y566; [1]) was 4.34. For the same binder, the pKd (TJP3_3, O95049; [1]) was “below the threshold” and the pKd (ARHGAP21, Q5T5U3; [1]) was 3.84.

QFQYAKESYI [TAGAP, Q8N103] was tested, and the pKd (DFNB31_1, Q9P202; [2]) was 4.24, the pKd (NHERF2_2, Q15599; [2]) was “below the threshold” and the pKd (GRASP, Q7Z6J2; [2]) was “below the threshold”. For the same binder, the pKd (FRMPD3, Q5JV73; [2]) was “below the threshold”, the pKd (DLG2_2, Q15700; [2]) was 4.16 and the pKd (PDZRN4_1, Q6ZMN7; [2]) was 3.96. For the same binder, the pKd (DLG4_2, P78352; [2]) was 4.41, the pKd (SCRIB_2, Q14160; [2]) was 3.56 and the pKd (LRRC7, Q96NW7; [2]) was “below the threshold”. The pKd (SCRIB_1, Q14160; [2]) was 3.72, the pKd (SYNJ2BP, P57105; [2]) was 4.71 and the pKd (AHNAK1, Q09666; [2]) was “below the threshold”. The pKd (PTPN3, P26045; [2]) was 4.84, the pKd (SIPA1L2, Q9P2F8; [2]) was “below the threshold” and the pKd (SCRIB_3, Q14160; [2]) was 4.67. The pKd (MPP2, Q14168; [2]) was “below the threshold”, the pKd (DLG3_3, Q92796; [2]) was 3.57 and the pKd (PTPN13_1, Q12923; [2]) was “below the threshold”. For the same binder, the pKd (SNTG2, Q9NY99; [2]) was 4.42, the pKd (Inadl_6, Q8NI35; [2]) was 4.06 and the pKd (NHERF4_2, Q86UT5; [2]) was “below the threshold”. The pKd (LNX1_2, Q8TBB1; [2]) was “below the threshold”, the pKd (DLG3_2, Q92796; [2]) was 4.15 and the pKd (SHANK1, Q9Y566; [2]) was “below the threshold”. For the same binder, the pKd (TJP3_3, O95049; [2]) was “below the threshold” and the pKd (ARHGAP21, Q5T5U3; [2]) was “below the threshold”.
